Here are results for one molecule from patent publication US20190336582A1 (published 2019).

In this assay the target is T1, IL-10 receptor (IL-10R1 and IL-10R2 receptor chains) on mouse cells (mouse, UniProt Q61727 17-575; Q61190 20-349).
T1 sequence (looked up) 1: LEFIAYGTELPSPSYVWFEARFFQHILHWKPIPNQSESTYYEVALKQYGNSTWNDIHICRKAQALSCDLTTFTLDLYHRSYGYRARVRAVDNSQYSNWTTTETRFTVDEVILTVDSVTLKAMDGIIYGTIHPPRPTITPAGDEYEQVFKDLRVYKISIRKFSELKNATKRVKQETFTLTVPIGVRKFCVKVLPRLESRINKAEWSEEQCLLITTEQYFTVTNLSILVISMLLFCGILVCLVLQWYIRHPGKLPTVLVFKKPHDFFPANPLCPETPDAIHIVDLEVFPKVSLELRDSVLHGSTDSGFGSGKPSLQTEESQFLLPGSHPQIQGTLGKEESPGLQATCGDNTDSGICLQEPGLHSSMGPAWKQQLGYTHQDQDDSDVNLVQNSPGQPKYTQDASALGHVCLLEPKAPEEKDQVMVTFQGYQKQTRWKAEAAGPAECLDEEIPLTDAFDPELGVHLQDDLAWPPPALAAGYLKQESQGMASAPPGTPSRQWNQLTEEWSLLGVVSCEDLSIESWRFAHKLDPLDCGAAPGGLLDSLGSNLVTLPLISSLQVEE
T1 sequence (looked up) 2: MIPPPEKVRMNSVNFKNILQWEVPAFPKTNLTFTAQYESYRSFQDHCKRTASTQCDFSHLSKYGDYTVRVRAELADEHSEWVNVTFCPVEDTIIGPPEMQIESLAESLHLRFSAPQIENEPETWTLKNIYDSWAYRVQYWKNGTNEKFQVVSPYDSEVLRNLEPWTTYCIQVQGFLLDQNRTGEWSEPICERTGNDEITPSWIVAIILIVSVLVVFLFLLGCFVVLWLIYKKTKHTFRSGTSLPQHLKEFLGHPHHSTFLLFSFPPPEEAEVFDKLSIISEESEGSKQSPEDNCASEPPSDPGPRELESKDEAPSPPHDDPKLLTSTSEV
As to the kind of experiment: cell-based or functional assay.

B1: Human wild-type IL-10 (wtIL-10) (ligand)
chain: SPGQGTQSENSCTHFPGNLPNMLRDLRDAFSRVKTFFQMKDQLDNLLLKESLLEDFKGYLGCQALSEMIQFYLEEVMPQAENQDPDIKAHVNSLGENLKTLRLRLRRCHRFLPCENKSKAVEQVKNAFNKLQEKGIYKAMSEFDIFINYIEAYMTMKIRN
Consider B1, for which the “EC50, proliferation of mouse mast cell line MC/9” value came to 5 pM and the “IC50, inhibition of TNFα production in LPS-stimulated C57BL/6 mouse PBMCs (PBMC + LPS)” value worked out at 0.45 pM.
